# From article PMC12607617, “Self-resistance mechanism to acyldepsipeptide antibiotics in the Streptomyces producer” (mBio, 2025)
# B1: Streptomyces hawaiiensis ClpP1, untagged (enzyme, Streptomyces hawaiiensis NRRL 15010, UniProt A0A5B9BGY8 1-219, looked up)
# chain: MRRPGAVVRRAGGYVTNLMPSAAGEPSIGGGLGDQVYNRLLNERIIFLGQPVDDDIANKITAQLLLLASDPEKDIYLYINSPGGSITAGMAIYDTMQYIKNDVVTIAMGLAASMGQFLLSAGTPGKRFALPNAEILIHQPSAGLAGSASDIKIHAERLLHTKKRMAELTSQHTGQTIEQITRDSDRDRWFDAFEAKEYGLIDDVMTTAAGMPGGGGTGA
# notes: ClpP1, proteolytic subunit of the Clp protease, Streptomyces hawaiiensis NRRL 15010; Printed as untagged in the pull-down; also called shClpP1
# Molecular target: the molecule itself
# Assay: SEC; purified S. hawaiiensis ClpP1, alone or with ClpP_(ADEP), pre-incubated with ADEP1
protein,measurement,value
B1,stoichiometry N,14
